Results published in patent US20230295238A1, “INSULIN RECEPTOR-MEDIATED ENHANCEMENT OF GENE TRANSFER” (THE SCRIPPS RESEARCH INSTITUTE, priority 2020, published 2023).
“Also recorded” adds a separate entry of the source. Read-outs that look alike come from different tables or passages of the source.

Key:
[1] = target: S519(VIII)-AAV9 (enhanced AAV9), mosaic AAV9 vector with insulin-mimetic peptide S519 inserted in capsid VR-VIII (adeno-associated virus serotype 9); assay: cell-based or functional assay
[2] = test system: HEK293T cells; format: cell-based, human; conditions: FLuc-encoding eAAV9; luciferase activity 24 hpt
[3] = Blood glucose after intramuscular injection in fasted mice; format: in vivo, mouse; conditions: 0.5 U/kg intramuscular
Method: Because of the physiological role of insulin in modulating blood glucose levels, we asked whether eAAV9, with its insulin-mimetic insertion, would exert a measurable effect on the blood glucose concentration of mice. Mice were fasted as described above, and blood glucose was measured by microsampling immediately before injection of vectors to obtain a baseline value. Mice were injected in the gastrocnemius muscle with 10^9 vg of WT AAV9, eAAV9, or, as a positive control, human insulin at 0.5 U/kg, a typical therapeutic dose for a patient with diabetes mellitus type 2 (FIG. 4D). Blood glucose was then measured at 45 min, 2 h, and 4 h post injection of vectors or insulin.
Blood glucose measurement. At 4 hours before glucose measurement, mice were relocated to a cage with iso-PADS bedding (Envigo) with access to water but no food source. Mice were then anesthetized with isoflurane and their left hind limb was shaved. Blood glucose was measured with a Contour Next glucometer (Bayer) by puncturing the saphenous vein with a lancet and sampling 1 ul of venous blood by capillary action. After the first glucose measurement, mice were injected in the medial aspect of the right gastrocnemius muscle with either 10^9 vector genomes or 0.5 U/kg human insulin (Tocris). Subsequent blood glucose measurements were performed in the same way as the first. […]

[4] = target: human insulin receptor, endogenous on HEK293T / Control 293T cells (human) (UniProt P06213); assay: cell-based or functional assay
[5] = target: T1, IR (Homo sapiens, UniProt P06213); conditions: cited from earlier work
[6] = target: T1, IR; conditions: cited from earlier work; remark: listed apart in the source

human IR ectodomain fused to an Fc tag (IR-Fc) (from UniProt P06213 28-956) (Fc fusion)
inhibition of eAAV9 transduction of HEK293T cells (luciferase activity 24 h after transduction), IC50 [1]: 600 pM

human insulin
IC50 of human insulin for inhibition of eAAV9 transduction [2]: 5.2 µg/mL | blood glucose ([3]; 2 and 4 hours): rebound effect | blood glucose ([3]; 45 min): sharp and statistically significant decrease

human insulin (Tocris) (from UniProt P01308 90-110) (ligand)
inhibition of eAAV9 transduction of HEK293T cells by human insulin (luciferase activity), IC50 [4]: 5.2 µg/mL

insulin-mimetic peptide GSLDESFYDWFERQLGKK (SEQ ID NO:8) [S371]
Kd ([5]; read-out: affinity of binding to IR): ~40000 pM | activity on IR [6]: activates the receptor in the absence of insulin

insulin-mimetic peptide, 36 amino acid linear peptide SLEEEWAQVECEVYGRGCPSGSLDESFYDWFERQLG (SEQ ID NO:7) (SLEEEWAQVECEVYGRGCPSGSLDESFYDWFERQLG) [S519]
Kd ([5]; human IR, read-out: Kd for IR): 20 pM | activity on IR [6]: behaves as an agonist; also recorded: agonist activity on IR
